According to the DeepSol protein solubility set:

Test: soluble on expression in E. coli; label from the status in PepcDB or PDB records

| Sequence | soluble on expression in E. coli |
| --- | --- |
| MLSKRIVTALNTAVKVQNAGIATTARGMAGASGSEVSKILEERILGTETGINLEETGKVLSIGDGIARVYGLKNIQAEEMVEFDSGIKGMAMNLDVDNVGVVVFGNDKVIREGDIVKRTGAIVDVPVGDGLLGRVVDALGNPIDGKGPIANARRSRVEVKAPGIIPRLSVREPMVTGVKAVDSLVPIGRGQRELIIGDRQTGKTAIAIDTIINQKRFNDAGDDKKKLFCIYVAVGQKRSTVAQIVKRLTDAGAMDYTIVVSATASDAAPLQFLAPYSGCAMGEHFRDNGKHALIIFDDLSKQAVAYRQMSLLLRRPPGREAYPGDVFYLHSRLLERAAKMNNSLGGGSLTALPVIETQAGDVSAYIPTNVISITDGQIFLETELFYKGVRPAINVGLSVSRVGSAAQTKAMKQVAGSMKLELAQYREVAAFAQFGSDLDASTQQLLNRGVRLTELLKQGQYVPMGIEEQVGVIYAGVKGYLDKVDPSAITKFEKEFLAHLRSSQQALLKTIREEGQISPQTDAQLKDVVVNFLATFKP | not soluble |
| QGGPVEILPYLFLGSCSHSSDLQGLQACGITAVLNVSASCPNHFEGLFRYKSIPVEDNQMVEISAWFQEAIGFIDWVKNSGGRVLVHSQAGISRSATICLAYLMQSRRVRLDEAFDFVKQRRGVISPNFSFMGQLLQFETQVLCH | soluble |
| MAHHHHHHMLCGSRATFARTAVAFFNMKHFQTKKKYNLTPQNIYETFSTVLLPRDRLLRQSVSGGGGSRVLVLDAQQRVKGVYLPVFCMPHPSTVTNGSNSLGVAVADYTRSIEATLAMHKAGGGGGTAPTLPTVLVVLSHPQGLAYGTFRADGTPGVPMKNLALAPILANARTQQASTNIASTPLRTSGLGTVMPLLNVSHRHAEVVRDIYTELNECEHVAELAACSTFVWVQRDNMSSMTFEKAQSSERYWERAKNDGDSAAAPPPGAISFLDRRWVLLMDVALHPDTGLGLYARDPATGDRIVNATGVQSALCRGLLLLDHVPRTVANTARAANRETGVSG | soluble |
| MSLWTIMIGSKNRAKVHALQEVVIRDKIIVRSEAVPSDVASQPFSDQETIQGAINRANHCLSFDGVDYGVGLEGGVVRSEYGLFLCNWGALVSQTGDQWVAGGARVPLPQEVAHELEGGKELGDIMESLTKNPDVRMTDGAIGYLTDGEISRKAMFQHVVHLLIGQARRDGHLLRTVTHEGHHHHHH | soluble |
| NPHLLVKYHSGFFVDGKFLCCQQSCKAAPGCTLWEAY | soluble |
| MSLKHQFSRNELAYGQEGLDLLKEKTVAVLGVGGVGSFAAEALARTNIGHIILIDKDDVDITNVNRQIHALTTTIGQSKVTLMEERIKLINPDCKVTPLHMFYTEETYEDLFNNYDIDYFIDASDTIIYKVHLMKECLERGIKMISSMGAANKTDPTRFKIADISKTYMDPMAKIIRNKLKRQGIKKGVPVVFSDESPIVIREDVKATVGDANAINRKGQMPPSSNAFVPSTVGLICASYVVNDILKNIPVRRIKDKGNEGHHHHHH | soluble |
| KVISPTYQASTQVLVHESDGEENSNLSDIQRNLQYSSTFQSIMKSTALMEEVKAELHLSESASSLKGKVVTSSENESEIINVAVQDHDPAKAAEIANTLVNKFEKEVDERMNVQGVHILSEAKASESPMIKPARLRNM | not soluble |
| MFVIGIPTLNEADNISRLVKQIDEYAVNLGKEIIIINSDSKSTDGTPQIFLETKTYNTKVSIVSEAKGKGYNVRNIFEYAINHVPNFSGLILIDGDVVSMKKMWLEKMFIAIESGNDLIIPNYARKSFEGNATNHFIYPMLVKIFKRDMPYQCISGDFGFSRGLIKDLTLKCNWHKYTLGYGIDIFLTLTAILKSYKIKEIDLQSKIHKKSFEKIEKIFLEVSQSFFETINDNSLNQDKLRLNINFESHSRQFIKSSDILSSNDIENLKLRALFLLQEEKQYLHGLSEVEWDGILSNTINNIYRYSSEEHSLYLLPLYLLRVYNYLKYN | not soluble |
| MSSTLRFHVLGRGAALPRAVAPYFVLRTDNWDDFGHRVQFHLILIVSGAPEKRIGSLKVLQRTSDKGEAMMVATDTELPSKFVELDDTFVSLGQDDDFYKKLHEALGDRAGEVLDALRDIAWRPAFASDFEPTPAFRNAMMRENGAQRARRFGRAWALGEQITERPAFDYVGTIEGADIKVEGEFDFSATDPVPGRIVGLIGRNAVGKTRYLASLGSDLAQISRRSAEALEAREARFPGGRPLFTRIIAISYSAFDRFKRPPMDSSSSYVYCGIRNDRGGLSRSALIDRYRLNQVRIRERGEQRSWMRHMKTILGDQGAQLTASLEEEIRSDSTDDSALSSLSSGQSILAHFVTALLAWIQPNSLVLFDEPETHLHPNAVASLFLVLSQVLQEFDSYAVIATHSPVVIQEIPAKRVLVFRREGNVTIAEPLLLESFGESVTELTRHVFETGEVESLYKRTLRELAAEDTVEDVLARFELGLSLSAQAYLLAQYSKKAGGRTLEHHHHHH | not soluble |
| MGSDKIHHHHHHMAQSSIEWTEMTWNPTTGCTKISAGCKFCYAEIMSKRLKAMGIDKYKDGFKVNIYPDALSIPYTWKSSKVVFVNSMSDLFHEDIPLDYIKKVFQVMNENPQHVFQVLTKRAERLFEVYKELKWTHNIWMGVSVENDKVKNRIDLLRKTSAKVKFLSLEPLIGPLPKLNLKKIDWVIVGGESGHRPRPMDSDWVLDIQEQCLKSDVAFFFKQWGGRNKKANGRLLNGRTYDEMPEIMEIEKVK | not soluble |
| MGSDKIHHHHHHMNFEVLVKHISTIQNTLQAQAAHAVNLALTSRNWLMGCYIVEFEQNGEDRAAYGEQLLKKLEQRLKTKGLNERRFREFRRLYLVYPQLKESVTQYIASQIQIRQSLTAEFTEPIRRLVTAESENGVWKLSTEHPQTETWMIPADRLFNRLSSTHLNTISGIENPIKRAFYEMETIRGCWSVKELERQIASLYYERSGLSKNKEALSALVQQQVTLLQPKDVINTPVTLEFLGLNERALVTENDLEQSILDNLQHFLLEMGHGFCFEARQKRILIDEDYFFADLVFYHRILKCHIIVELKIDKFRHEYASQLNMYLNYFKAEVMQPDDNPPIGILLCTEKGDTLVKYATAGLDPNIFVQKYMIELPSEEEIKRFILGVNF | not soluble |
| MGSDKIHHHHHHMGLNLSKGDMYKFVNYTWNPIKGKCLHDCSYCYMKQINPNANPPRLAEYELNTDLGCGRSIFIGSSTDMFAEDIPSEWIARVLDYCYQNRNMLLPNAYLLQSKNPKRFLEFINHPIMERVVFCTTIETNRFYPEIMNKAPRIDERVEAMEEIARLGRPTMVTAEPLMQFDHEEMVSFIRRCSPKLVNIGRNSCRRIVLPEPTQEEVQQLIAELKSLKSFTKVNVKDNALEWCK | not soluble |
| MPLTSVTPLCITWNGEKLVAAGYDSTILTAVPKDIVKVKVNDRPIVFDVAPIIGEGRTLVPLRHIFEALGAEVKWDASTRTVTGIKGSDKIILKIDSKEALVNGETKELDVPATIVNGRTLVPVRSISESLGAEVSWDDNSKTVIIKTNF | not soluble |
| MFPEQQKEEFVSVWVRDPRIQKEDFWHSYIDYEICIHTNSMCFTMKTSCVRRRYREFVWLRQRLQSNALLVQLPELPSKNLFFNMNNRQHVDQRRQGLEDFLRKVLQNALLLSDSSLHLFLQSHLNSEDIEACVSGQTKYSVEEAIHKFALMNRRFPEEEEEGKKDADVEYDSESSSSGLGHSSDDSSSHGCKTSPALQES | soluble |
| MQLQLICEDPSQQSHLDELAARWQLSHTDESDFALVLTAERLELRKVDEPKLGAIFVDLIGGAVGHRRKFGGGKGQAIAKAAGLNKGATPTVLDGTAGLGRDAFVLASLGCKVQMVERHPVVAALLDDGLARAKQDPEIGTWVSERMSLIHASSHDALDQLAQDREFVKPDVVYLDPMYPHPENKKKSALVKKEMRVFQSLVGADLDADGLLEPALALATKRVVVKRPDYANWLNEQKPSMAIETKKNRFDVYVKASMALEHHHHHH | soluble |
| MPGALSHIRVLDLSRVLAGPWAGQILADLGAEVIKIERPGSGDDTRAWGPPFLKDAEGNDTSEAAYYLSANRNKKSVTVDFTQPEGQRIVRELAAKADILLENFKVGGLKAYGLDYESLKQVNPKLIYCSITGFGQSGPYAKRAGYDFMIQGLGGLMSLTGRADNEEGAGPVKVGVALTDILTGLYSSTAVLAALAHRDVSGIGQHIDMALLDVQVACLANQTLNYLTTGVPPRRLGNAHPNIVPYQDFPTADGDMILTVGNDSQFRKFAELADHPEWADDPRFATNKARVANREVLIPLIRQATVLHTTAEWILSLERAGVPCGPINDLAQVFADPQVQARGLRVELPHPLAGTVPQVASPIRLSETPVEYRNPPPTLGQHTDEVLETLLGLDAAALERLRDGKVI | not soluble |
| MVEIDFNKENEEDFSDPPGFVDDVTDDVLVPDVLHKKPTIDEFEDNCVFIAGIPVVGADRLGKLQSVLKKVLERLDPAVKLYIPPSPEGGCLGVLLTEWADQRSAQFAVKSLNGYAFDKNHTFTARSFKDMKQLEAPSDHWTTPEKQAYNDVGDLWWWLQNERCRDQFAISHDKLGVPTVGVFTNMKGNDPELAGDADKAERANWTETVFTWSPHGSYLSTIHKQGIILWGGKDYARAHRFAHTNVQYIDFSPWETYLVTYAAPEESNSWGDCEKDSLRIWDVRTGELKKAFSTFELTGRTQLPTWPFFRWSFDEKYFACLKAPEKDKLEREQKINGISIFESEKFELYEGRPVNIENIKQFEWSPTSTVLAYYSECTDAVPAEFGLLQVPSMQRLRSARVHNVADAQMFWQKSGKRLAFYTMRFKKKEYRETGEVKYVGGCQYHVDIFEIDKKDVSLMNLPLSEPFIHFDWDPEGDKFCVLVGNTAKATPQVYKIEANSHAPKLVSKLDAGVHFNEVQFAPKGGWLAVLAKVSAGGNVYFIDTSLSEAKRTNVIEHPLFNKGYWDPTGRYFVTCSTLGGRAGADLGYRIFTFQGRELCRKNLDRLAQFKWRPRPPVKLSEQKQREIKKNLKKTAAKFIKQDDDEKCRASQEVVEKRRKIMAAFDIIRSRNREQLDATRDERISLRNGVDTEAQLDEDEFVDEEITIALSTSKTQAPLTEEEMRD | not soluble |
| MAMVPAKSLATTCVASKRMMWQIPEKWTMEEASTVPCVYSTVYYALVVRGQMKKGEKILIHAGSGGVGQAAISVALAHGLTVFTTVGSKEKREFLLKRFPKLQERNIGNSRDTSFEQLVLRETKGRGVDLVLNSLSEEKLQASIRCLGLNGRFLEIGKFDLSNNSPLGMSVFLKNTSFHGILLDSVMEGEEEMQNQVVSLVAEGIKTGAVVPLPTSVFNDQQVEQAFRFMASGKHIGKVVIK | soluble |
| MSLNSLPKNIAIYTRVSTEKQDSNNSKANQLESIKQYINNQGWSDVPYEIYSDTQSASITSNSLNMYNDSDTMNPSIFLRDGLRRLIYDANYKKFDKLIVYSHDRLSRDIYEGLLIKHTLKKLNIDILYSKAGEQINSENQSINNFFENMLSNIAALESSIIGGRVLIGNRHNILNNIWAGGPAPYGYKLIALPSNRKKSKLSIYAPEARVVKKIFELYTTGYTPKDIVQFIKSEYSYNKDRLWTINSIKSILNNPVYTGTMVWNKKGGKRNPRKHPIDEYVYSKFDENIRIIDEKLWKKSLNIRKLQDENPKFLSEGHHHHHH | soluble |
| MAHHHHHHMSQTATAGPALPPPEEPLTYPITFTKQAEESPQSEPGVAAPAAPSGLHQISIFSALHFLLPVYELAGWLPKTTVQHSRKSGDKSSPVSATAGGSKSTSGTAADVSIDLDAIPHDDVRAALRLLPVFEKFFVEGSKIVAQHTDLYYFIESFTLPTPKGPKVITRSKVEGDYRAVHQPSHAPASLGAAGAMTKTTVTNSTAYFSLLPGHNQFLLYYEDCEKLRHFTYLQLDQLRFAWVAVKELLEESKVFNLSDGSLTGLAKRDLQKNNTASPFCLASSAQAATATERASSHDNGSNGGAVIGRGGGNARLHQGTSGNVITAPSKETTEEKKRIQQMSFLREELEHECQRRWPYTPVSKSCIFSLEEKVEAELPADALEQLGIVGAHNTRNSKNGNRRGPRYYLATVDLPLLNKKGGAARFKAPRWWNNRRDAESAAAEATLLALRSMKS | not soluble |
